Experimental data: patent publication US20190170753A1 (ICAHN SCHOOL OF MEDICINE AT MOUNT SINAI, published 2019)
Where no end group is shown, it is not given here.

How the values were obtained:
HCV core peptide 3 = target: T1, HCV core peptide 3 (hepatitis C virus, N-terminal biotin; C-terminal amide); assay: peptide EIA, 2 ug/mL IgG;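 also: purified mouse IgG binding to individually well-coated synthetic peptides, detected with peroxidase anti-mouse IgG Fc and o-phenylenediamine, IgG incubated at least 1 h at room temperature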
T1 construct: range 5-19
Protocol: (§1) The coated plates were kept dry in a sealed foil pouch and stored at <10 degrees C. until ready for use. A peptide coated plate for each test antibody was blocked using 3% BSA in PBS with 0.5% Tween 20. The blocked plates were washed with distilled water and a 2 ug/mL solution of purified IgG from each test sample diluted in BSA block solution was added to each peptide coated well of the blocked plate and allowed to incubate at room temperature for at least one hour. Following incubation the plates were washed with distilled water. A 200 ng/mL solution of peroxidase labeled F(ab′)2 fragment goat anti-mouse IgG Fc fragment specific (Jackson Immunoresearch) in BSA block solution was added to all wells and incubated at room temperature for 30 minutes. The plates were washed with distilled water and o-phenylenediamine substrate was used as the chromagen to generate signal. Plates were read at 492 nm and the results were analyzed.

HCV core peptide 70 = HCV core peptide 70 (hepatitis C virus, N-terminal biotin; C-terminal amide); assay: peptide EIA, 2 ug/mL IgG;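 also: purified mouse IgG binding to individually well-coated synthetic peptides, detected with peroxidase anti-mouse IgG Fc and o-phenylenediamine, IgG incubated at least 1 h at room temperature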
Protocol: as §1

HCV core peptide 87 = HCV core peptide 87 (hepatitis C virus, N-terminal biotin; C-terminal amide); assay: peptide EIA, 2 ug/mL IgG;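 also: purified mouse IgG binding to individually well-coated synthetic peptides, detected with peroxidase anti-mouse IgG Fc and o-phenylenediamine, IgG incubated at least 1 h at room temperature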
Protocol: as §1

[1] = target: T2, Mut1T110N biotin labeled HCV core peptide (hepatitis C virus, biotin labeled (position not given)); assay: capture EIA; Ab 500 ng/mL; bt-peptide 500 ng/mL
T2 peptide: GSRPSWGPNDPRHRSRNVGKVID

[2] = target: T3, Mut6T110S biotin labeled HCV core peptide (hepatitis C virus, biotin labeled (position not given)); assay: capture EIA; Ab 500 ng/mL; bt-peptide 500 ng/mL
[3] = target: T4, C113WT biotin labeled HCV core peptide (hepatitis C virus, also: biotin labeled, position not given here); assay: capture EIA; Ab 500 ng/mL; bt-peptide 500 ng/mL
T4 peptide: RGSRPSWGPTD

[4] = target: T5, C113T109N biotin labeled HCV core peptide (hepatitis C virus, also: biotin labeled, position not given here); assay: capture EIA; Ab 500 ng/mL; bt-peptide 500 ng/mL
T5 construct: also called C113T110N
T5 peptide: RGSRPSWGPND

[5] = target: T6, 92-133 biotin labeled HCV core peptide (hepatitis C virus, UniProt Q9WMX2 92-133, chain 1: biotin label (bt-pep). Its position and any spacer are not visible in the passages shown.); assay: capture EIA; Ab 500 ng/mL; bt-peptide 500 ng/mL
T6 construct: Only the label 92-133 is printed
T6 peptide: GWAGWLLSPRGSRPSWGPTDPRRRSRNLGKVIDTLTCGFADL
Protocol: (§2) Assay wells were coated with sheep anti-mouse IgG Fc specific antibody and incubated overnight. The coating solution was then removed; the wells blocked using BSA/tween in PBS and then washed with dH2O. […] Next, biotin labeled peptides (diluted to 500 ng/mL in block) were added, the plates incubated for 10 minutes while shaking at 700 rpm and then washed. Peroxidase conjugated streptavidin (diluted to 200 ng/mL in block) was then added to all assay wells, incubated for 20 minutes while shaking at 700 rpm and then washed. Finally, color was developed using OPD and signal quenched using 1N H₂SO₄. Signal was read at 492 nm.

[6] = target: T7, WT1STHV biotin labeled HCV core peptide (hepatitis C virus, biotin labeled (position not given)); assay: capture EIA; Ab 500 ng/mL; bt-peptide 500 ng/mL
T7 peptide: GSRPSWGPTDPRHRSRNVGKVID

[7] = target: T2, Mut1T110N biotin labeled HCV core …; assay: capture EIA; Ab 2000 ng/mL; bt-peptide 500 ng/mL
Protocol: as §2

[8] = target: T3, Mut6T110S biotin labeled HCV core …; assay: capture EIA; Ab 2000 ng/mL; bt-peptide 500 ng/mL
Protocol: as §2

[9] = target: T4, C113WT biotin labeled HCV core peptide; assay: capture EIA; Ab 2000 ng/mL; bt-peptide 500 ng/mL
Protocol: as §2

[10] = target: T5, C113T109N biotin labeled HCV core …; assay: capture EIA; Ab 2000 ng/mL; bt-peptide 500 ng/mL
Protocol: as §2

[11] = target: T6, 92-133 biotin labeled HCV core peptide; assay: capture EIA; Ab 2000 ng/mL; bt-peptide 500 ng/mL
Protocol: as §2

[12] = target: T7, WT1STHV biotin labeled HCV core peptide; assay: capture EIA; Ab 2000 ng/mL; bt-peptide 500 ng/mL
Protocol: as §2

[13] = target: T2, Mut1T110N biotin labeled HCV core …; assay: capture EIA; Ab 31.25 ng/mL; bt-peptide 500 ng/mL
Protocol: as §2

[14] = target: T3, Mut6T110S biotin labeled HCV core …; assay: capture EIA; Ab 31.25 ng/mL; bt-peptide 500 ng/mL
Protocol: as §2

[15] = target: T4, C113WT biotin labeled HCV core peptide; assay: capture EIA; Ab 31.25 ng/mL; bt-peptide 500 ng/mL
Protocol: as §2

[16] = target: T6, 92-133 biotin labeled HCV core peptide; assay: capture EIA; Ab 31.25 ng/mL; bt-peptide 500 ng/mL
Protocol: as §2

[17] = target: T7, WT1STHV biotin labeled HCV core peptide; assay: capture EIA; Ab 31.25 ng/mL; bt-peptide 500 ng/mL
Protocol: as §2

[18] = target: T2, Mut1T110N biotin labeled HCV core …; assay: capture EIA; Ab 15.6 ng/mL; bt-peptide 500 ng/mL (summary of Table 7)
Protocol: as §2

[19] = target: T3, Mut6T110S biotin labeled HCV core …; assay: as above
Protocol: as §2

[20] = target: T4, C113WT biotin labeled HCV core peptide; assay: as above
Protocol: as §2

[21] = target: T5, C113T109N biotin labeled HCV core …; assay: as above
Protocol: as §2

[22] = target: T6, 92-133 biotin labeled HCV core peptide; assay: as above
Protocol: as §2

[23] = target: T7, WT1STHV biotin labeled HCV core peptide; assay: as above
Protocol: as §2

B1: Neo4 mouse monoclonal antibody (antibody, V domains shown)
VH: QIQLKESGPAVIKPSQSLSLTCIVSGFSITSSVYCWQWIRQPPGKGLEWMGRICYDGSVDYSPSITSRGTISRDTSLNKVFFQLSSVTNEDTAMYYCSRENHIDYYDTTYPSFDVWGAGTTVTVSS
VL: DIVLTQSPASLIVSLGQRATISCRASKSVNEYGYTYMHWYQQKPGLPPKLLIYLASNLDSGVPARFSGSGSGTDFTLNIHPVEEEDAATYYCQHSRELPYTFGGGTKLEIKR
notes: Mouse hybridoma antibody, isotype IgG1, purified with Protein G; also called HCV Neo4
OD (A492 nm) (HCV core peptide 3): 0.05 OD
OD (A492 nm) (HCV core peptide 70): 0.04 OD
OD (A492 nm) (HCV core peptide 87): 0.05 OD
signal at 492 nm [1]: 0.065 A492
signal at 492 nm [2]: 1.17 A492
signal at 492 nm [3]: 0.0561 A492
signal at 492 nm [4]: 0.0803 A492
signal at 492 nm [5]: 1.48 A492
signal at 492 nm [6]: 1.91 A492
signal at 492 nm [7]: 0.0882 A492
signal at 492 nm [8]: 1.17 A492
signal at 492 nm [9]: 0.0766 A492
signal at 492 nm [10]: 0.059 A492
signal at 492 nm [11]: 1.31 A492
signal at 492 nm [12]: 1.9 A492
signal at 492 nm [13]: 0.0938 A492
signal at 492 nm [14]: 0.48 A492
signal at 492 nm [15]: 0.0622 A492
signal at 492 nm [16]: 1.11 A492
signal at 492 nm [17]: 1.67 A492
signal at 492 nm [18]: 0.0771 A492
signal at 492 nm [19]: 0.25 A492
signal at 492 nm [20]: 0.0697 A492
signal at 492 nm [21]: 0.0736 A492
signal at 492 nm [22]: 0.806 A492
signal at 492 nm [23]: 1.42 A492
